Measured values reported in patent US20110178020A1 (UNIVERSITY OF LOUISVILLE RESEARCH FOUNDATION, published 2011).

Target: T1, GST-VAMP-2 (VAMP-2 generated as a GST fusion protein, bound to glutathione beads) (UniProt P63027 1-94)
T1 construct: not shown: glutathione S-transferase (GST) tag
Assay: GST pull down, immunoblot for the HA tag

T1 sequence (P63027 1-94): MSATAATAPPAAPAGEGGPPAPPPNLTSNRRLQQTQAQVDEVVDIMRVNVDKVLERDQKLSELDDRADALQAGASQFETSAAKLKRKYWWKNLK

B1: TAT-HA-SNAP-23 fusion polypeptide (TAT cell-penetrating polypeptide, hemagglutinin affinity tag, and 78 amino acids from the amino-terminus of human SNAP-23) (other)
chain: MRGSHHHHHHGMASMTGGQQMGRDLYDDDDKDRWGSKLGYGRKKRRQRRRGGSTMSGYPYDVPDYAGSMDNLSSEEIQQRAHQITDESLESTRRILGLAIESQDAGIKTITMLDEQKEQLNRIEEGLDQINKDMRETEKTLTELNK
notes: also called TAT-SNAP-23
binding result: no binding
